{
  "source": "the RNAGym collection of RNA variant scans (doi:10.1073/pnas.2313332121)",
  "parents": {"B1": {"name": "TPR 5TU (parent)", "chain": "GGAUCUUCUCGAUCUAACAAAAAAGACAAAUCUGCCACAAAGCUUGAGAGCAUCUUCGGAUGCAGAGGCGGCAGCCUUCGGUGGCGCGAUAGCGCCAACGUUCUCAACUAUGACACGCAAAACGCGUGCUCCGUUGAAUGGAGUUUAUCAUG"}},
  "note": "Variants at the floor of the assay were thinned out.",
  "data": [
    {"variants_of": "B1", "experiment": "polymerase ribozyme fitness, log enrichment relative to wild type (log ratio); higher = more active; in vitro selection for triplet polymerase activity", "procedure,_shortened": "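Streptavidin-bead capture of gel-excised extended constructs, followed by RT-PCR, closed a single triplicate in vitro selection round. That round began by annealing PCR-built, transcribed mutant libraries of each subunit of a heterodimeric triplet polymerase ribozyme with a biotinylated primer, the partner subunit and triplets, then incubating them frozen at −7 °C. After Illumina sequencing of inputs and outputs, genotypes needed ≥10 input reads and ≥1 read per output. Fitness is the base-2 logarithm of genotype enrichment over wild-type enrichment, using inverse-variance-weighted replicate averages.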", "values": [
      {"variant": "C32G U56A G94A C108U G124C U145A", "polymerase ribozyme fitness (log ratio)": "≤ -4.2"},
      {"variant": "U33C G42A G81A A89G A119C C132U", "polymerase ribozyme fitness (log ratio)": "≤ -4.2"},
      {"variant": "C35A A64C A98U C99U G152U", "polymerase ribozyme fitness (log ratio)": "≤ -4.2"},
      {"variant": "G34U G58U G74U G81A U102A U104C", "polymerase ribozyme fitness (log ratio)": "≤ -4.2"},
      {"variant": "U33G A47C A52C U53A A73U C87G", "polymerase ribozyme fitness (log ratio)": "≤ -4.2"},
      {"variant": "G34A G50C G92U", "polymerase ribozyme fitness (log ratio)": "≤ -4.2"},
      {"variant": "U33G G83A G88U G136C", "polymerase ribozyme fitness (log ratio)": "≤ -4.2"},
      {"variant": "G34A C57G G117A U144A", "polymerase ribozyme fitness (log ratio)": -3.39},
      {"variant": "C32G C87U A107U A113C C116A", "polymerase ribozyme fitness (log ratio)": "≤ -4.2"},
      {"variant": "U33C C85A", "polymerase ribozyme fitness (log ratio)": -3.61},
      {"variant": "G34C C36A A91C C96U C123G G140A", "polymerase ribozyme fitness (log ratio)": -4.15},
      {"variant": "C32U A89U", "polymerase ribozyme fitness (log ratio)": -2.63},
      {"variant": "C35A C108G C116A A142U", "polymerase ribozyme fitness (log ratio)": "≤ -4.2"},
      {"variant": "G34U C96G", "polymerase ribozyme fitness (log ratio)": -2.91},
      {"variant": "U33G C72U C95A G126U A137G", "polymerase ribozyme fitness (log ratio)": "≤ -4.2"},
      {"variant": "C32U C69A G84A C96G U111A", "polymerase ribozyme fitness (log ratio)": "≤ -4.2"},
      {"variant": "U33G U53A", "polymerase ribozyme fitness (log ratio)": -3.68},
      {"variant": "C32U U53A A91C G94A C105G A121U U151C", "polymerase ribozyme fitness (log ratio)": "≤ -4.2"},
      {"variant": "G34U C95U A107G A110G", "polymerase ribozyme fitness (log ratio)": -3.86},
      {"variant": "U33A U56A C75G G81U G83A U127A", "polymerase ribozyme fitness (log ratio)": "≤ -4.2"},
      {"variant": "C32U C76A G83U G92C C114U C123A", "polymerase ribozyme fitness (log ratio)": "≤ -4.2"},
      {"variant": "U33A G50C A52C C87A C96U C105U U127G U144A", "polymerase ribozyme fitness (log ratio)": "≤ -4.2"},
      {"variant": "C35A C57U C93G U134A U139A", "polymerase ribozyme fitness (log ratio)": "≤ -4.2"},
      {"variant": "U33C C87G G152A", "polymerase ribozyme fitness (log ratio)": "≤ -4.2"},
      {"variant": "G34A A41G A120U", "polymerase ribozyme fitness (log ratio)": -1.2},
      {"variant": "C35A A52C G67U G68C C76U A115U A120C U134C", "polymerase ribozyme fitness (log ratio)": "≤ -4.2"},
      {"variant": "C32U A39G A40C C54A G94U A142U", "polymerase ribozyme fitness (log ratio)": "≤ -4.2"},
      {"variant": "G34U C51U G59U G88A G141U A142G U146G A147U", "polymerase ribozyme fitness (log ratio)": "≤ -4.2"},
      {"variant": "C35A G50U C69A G74A", "polymerase ribozyme fitness (log ratio)": "≤ -4.2"},
      {"variant": "G34A G140A", "polymerase ribozyme fitness (log ratio)": -3.88},
      {"variant": "U33A G58A C96A G152U", "polymerase ribozyme fitness (log ratio)": -3.79},
      {"variant": "G34U C95G A115G C116U G140C U151A", "polymerase ribozyme fitness (log ratio)": -4.19},
      {"variant": "U33G C85G G117C", "polymerase ribozyme fitness (log ratio)": "≤ -4.2"},
      {"variant": "U33G G46A A49C U77C A98U C99U G152U", "polymerase ribozyme fitness (log ratio)": "≤ -4.2"},
      {"variant": "C32U G46A A60U G83C C96A G141A", "polymerase ribozyme fitness (log ratio)": "≤ -4.2"},
      {"variant": "U33A A40C A41U C93G", "polymerase ribozyme fitness (log ratio)": -3.86},
      {"variant": "C32U G83U G126A", "polymerase ribozyme fitness (log ratio)": -4.19},
      {"variant": "U33C G50A", "polymerase ribozyme fitness (log ratio)": -3.85},
      {"variant": "U33A G46A G59A C103A A115G", "polymerase ribozyme fitness (log ratio)": -4.12},
      {"variant": "C32G C87G U104G A110G A150U", "polymerase ribozyme fitness (log ratio)": "≤ -4.2"},
      {"variant": "G34U C85A", "polymerase ribozyme fitness (log ratio)": -3.91},
      {"variant": "C32U A40G C105A", "polymerase ribozyme fitness (log ratio)": -3.89},
      {"variant": "C32U U53A G84U A120G G128U A142U", "polymerase ribozyme fitness (log ratio)": "≤ -4.2"},
      {"variant": "U33G G48A G59A G84A G88A C149U", "polymerase ribozyme fitness (log ratio)": "≤ -4.2"},
      {"variant": "G34A G48C G59A U102G C114A G143U A147G", "polymerase ribozyme fitness (log ratio)": "≤ -4.2"},
      {"variant": "U33G C87A A142U", "polymerase ribozyme fitness (log ratio)": "≤ -4.2"},
      {"variant": "C32U C36U G68A G83U", "polymerase ribozyme fitness (log ratio)": "≤ -4.2"},
      {"variant": "U33A C85U U146G A147U A150G", "polymerase ribozyme fitness (log ratio)": "≤ -4.2"},
      {"variant": "G34A C87A G141A", "polymerase ribozyme fitness (log ratio)": "≤ -4.2"},
      {"variant": "C32G G94C", "polymerase ribozyme fitness (log ratio)": -4.18},
      {"variant": "C32G G94A", "polymerase ribozyme fitness (log ratio)": -3.8},
      {"variant": "G34U G141C", "polymerase ribozyme fitness (log ratio)": -2.78},
      {"variant": "C32U U33A U151A", "polymerase ribozyme fitness (log ratio)": -4.18},
      {"variant": "G34A U111C A113C G124U G152U", "polymerase ribozyme fitness (log ratio)": "≤ -4.2"},
      {"variant": "G34U A39U C43A C85U G117A", "polymerase ribozyme fitness (log ratio)": -3.98},
      {"variant": "C32U C51A A52U C96G G136U", "polymerase ribozyme fitness (log ratio)": "≤ -4.2"},
      {"variant": "C32U C103U", "polymerase ribozyme fitness (log ratio)": -2.66},
      {"variant": "C32G G42C A49U G94C C95A G126A", "polymerase ribozyme fitness (log ratio)": -3.97},
      {"variant": "U33G G46C C95U C99A A107G G133U", "polymerase ribozyme fitness (log ratio)": "≤ -4.2"},
      {"variant": "G34U U56A", "polymerase ribozyme fitness (log ratio)": -1.7},
      {"variant": "C35A C87U", "polymerase ribozyme fitness (log ratio)": -4.03},
      {"variant": "C35A G70A A89G G92A", "polymerase ribozyme fitness (log ratio)": "≤ -4.2"},
      {"variant": "C32U G65C U77A C87G U90C C114A U151A", "polymerase ribozyme fitness (log ratio)": "≤ -4.2"},
      {"variant": "C35A A89U U90G C99U U144G", "polymerase ribozyme fitness (log ratio)": "≤ -4.2"},
      {"variant": "U33C A52G G70A G92A A150G", "polymerase ribozyme fitness (log ratio)": -3.87},
      {"variant": "C32U A40U U56C C85U U90A C114U", "polymerase ribozyme fitness (log ratio)": -4.06},
      {"variant": "C32U G80U U102G A113U C125U G126A", "polymerase ribozyme fitness (log ratio)": "≤ -4.2"},
      {"variant": "U33G C54A G86A C87G A119U A122U G143C A147C", "polymerase ribozyme fitness (log ratio)": "≤ -4.2"},
      {"variant": "G34A A40U U45C C69A C76A C87U G94A A106G A122U G124C U151A", "polymerase ribozyme fitness (log ratio)": "≤ -4.2"},
      {"variant": "U33A C75G C76A A142G", "polymerase ribozyme fitness (log ratio)": "≤ -4.2"},
      {"variant": "G34U A142C", "polymerase ribozyme fitness (log ratio)": -3.85},
      {"variant": "C32U C36A U55G C93G G133U G141U", "polymerase ribozyme fitness (log ratio)": -4.01},
      {"variant": "U33G A60G C85A A97U A142C", "polymerase ribozyme fitness (log ratio)": "≤ -4.2"},
      {"variant": "U33G G58U A91C G143U", "polymerase ribozyme fitness (log ratio)": -3.87},
      {"variant": "U33G C95G C116A", "polymerase ribozyme fitness (log ratio)": -4.15},
      {"variant": "G34A C57G A66U A115U U134C A142U U148G", "polymerase ribozyme fitness (log ratio)": -3.95},
      {"variant": "C32U A49C U55A G81A C85U U90A A106U A121U C125A", "polymerase ribozyme fitness (log ratio)": "≤ -4.2"},
      {"variant": "U33G U55G G68A C79A G84U G136U", "polymerase ribozyme fitness (log ratio)": "≤ -4.2"},
      {"variant": "G34C A39C U55A A60U A73U U146G", "polymerase ribozyme fitness (log ratio)": "≤ -4.2"},
      {"variant": "C32U C75U G88A A115C", "polymerase ribozyme fitness (log ratio)": "≤ -4.2"},
      {"variant": "C32U C38U C69A U78A C99G U101A U127C", "polymerase ribozyme fitness (log ratio)": "≤ -4.2"},
      {"variant": "G34U G94A", "polymerase ribozyme fitness (log ratio)": -2.37},
      {"variant": "U33G G83C", "polymerase ribozyme fitness (log ratio)": -3.6}
    ]}
  ]
}
